These results are taken from the RNAGym collection of RNA variant scans (doi:10.1093/molbev/msab373).

To fix the notation:
B1: Azoarcus group I ribozyme (parent)
chain: GUGCCUUGCGCCGGGAAACCACGCAAGGGAUGGUGUCAAAUUCGGCGAAACCUAAGCGCCCGCCCGGGCGUAUGGCAACGCCGAGCCAAGCUUCGGCGCCUGCGCCGAUGAAGGUGUAGAGACUAGACGGCACCCACCUAAGGCAAACGCUAUGGUGAAGGCAUAGUCCAGGGAGUGGCGAAAGUCACACAAACCGG

Variants of B1 are the subject of the data set. Nature of the data set: reverse-splicing fitness (ratio to wild type); higher = more active; in vitro selection; Mg2+ level not given. A digest of the protocol:
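An in vitro group I ribozyme library with randomized positions was T7-transcribed and gel-purified. In triplicate, 10 pmol RNA in EPPS pH 7.5 was reacted with 50 pmoles of a 30-nt RNA substrate for 1 h at 37 °C across several added MgCl2 levels (1–48 mM), then stopped with EDTA. Products were reverse transcribed from a substrate-complementary primer, PCR-amplified and sequenced (HiSeq 4000). Fitness is a variant's read proportion after selection over that before, normalised to wild type.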
For C82A A111G A120C A145U C150G U176C, the reverse-splicing fitness was 0.00993.

Turning to C82A A111G A120C A145U C150G U176A, the reverse-splicing fitness worked out at 0.00605. For the variant C82A A111G A120C A145U C150G U176G, the reverse-splicing fitness was determined as 0.00395. Regarding C82A A111G A120C A145G C150G U176C, the reverse-splicing fitness worked out at 0.0121.

In the case of C82A A111G A120C A145G C150G U176A, the reverse-splicing fitness came out at 0.00873.

Regarding C82A A111G A120C A145G C150G U176G, the reverse-splicing fitness is 0.00593. For the variant C82A A111G A120C A145G C150A U176A, the reverse-splicing fitness is 0.0133. To C82A A111G A120C A145G C150A U176C belongs 0.0253; to C82A A111G A120C A145G C150A U176G, 0.0103; to C82A A111C A145U C150A C169U U176A, 0.0155. Next, C82A A111C A145U C150A C169U U176C: 0.0167; C82A A111C A145U C150A C169U U176G: 0.00853; C82A A111C A145U C150G C169A U176A: 0.0098. On to C82A A111C A145U C150G C169A U176C, for which the reverse-splicing fitness stood at 0.0117. Next, C82A A111C A145U C150G C169A U176G: 0.00861; C82A A111G A120C A145G C150U C169G U176C: 0.0192; C82A A111G A120C A145G C150U C169G U176A: 0.0161. Next, C82A A111G A120C A145G C150U C169G U176G: 0.00629; C82A A111G: 0.435; C82A A111G A120C A145G C150U C169U U176A: 0.0141.

Consider C82A A111G A120C A145G C150U C169U U176C, for which the reverse-splicing fitness is 0.0148. To C82A A111G A120C A145G C150U C169U U176G belongs 0.00671. To C82A A111G A120C A145U C150A C169G U176C belongs 0.0245; to C82A A111G A120C A145U C150A C169G U176A, 0.0188; to C82A A111G A120C A145U C150A C169G U176G, 0.00642. Take C82A A111G A120C A145U C150A C169A: the reverse-splicing fitness came out at 0.0111. To C82A A111G A120C A145U C150A C169G belongs 0.00948; to C82A A111G A120C A145U C150A C169U, 0.00961. Take C82A A111G A120C A145G U176C: the reverse-splicing fitness was 0.0327. Take C82A A111G A120C A145G U176A: the reverse-splicing fitness is 0.0183. In the case of C82A A111G A120C A145G U176G, the reverse-splicing fitness was determined as 0.00889. Next, C82A A111G A120C A145C: 0.0362. Next, C82A A111G A120C A145U: 0.0424; C82A A111G A120C A145G: 0.0444; C82A A111C C150U C169U: 0.0128. Regarding C82A A111C C150U C169A, the reverse-splicing fitness stood at 0.0115. To C82A A111C C150U C169G belongs 0.00783. Take C82A A111C C169A U176G: the reverse-splicing fitness amounted to 0.00874. Next, C82A A111C C169A U176A: 0.0171; C82A A111C C169A U176C: 0.0237; C82A A111G A120C A145U C150G C169A U176G: 0.00597. To C82A A111G A120C A145U C150G C169A U176C belongs 0.0114.

Turning to C82A A111G A120C A145U C150G C169A U176A, the reverse-splicing fitness turned out to be 0.011. Next, C82A A111C A145G C169A U176G: 0.0069; C82A A111C A145G C169A U176A: 0.0211; C82A A111C A145G C169A U176C: 0.029. To C82A A111C A145U C150U C169A U176G belongs 0.00861; to C82A A111C A145U C150U C169A U176C, 0.0146; to C82A A111C A145U C150U C169A U176A, 0.014. In the case of C82A A111G A120C A145C C150U C169U, the reverse-splicing fitness worked out at 0.0104. Next, C82A A111G A120C A145C C150U C169A: 0.00838. With C82A A111G A120C A145C C150U C169G, the reverse-splicing fitness was found to be 0.00854. To C82A A111C A145G C150U C169A U176G belongs 0.00833; to C82A A111C A145G C150U C169A U176A, 0.0141; to C82A A111C A145G C150U C169A U176C, 0.0148. C82A A111G A120C A145C C150U: the reverse-splicing fitness was found to be 0.0161. To C82A A111G A120C A145C C150G belongs 0.00968. As for C82A A111G A120C A145C C150A, the reverse-splicing fitness amounted to 0.00953. As for C82A A111G A120C A145C C150U C169A U176A, the reverse-splicing fitness came out at 0.0199.

As for C82A A111G A120C A145C C150U C169A U176G, the reverse-splicing fitness came out at 0.00704.

In the case of C82A A111G A120C A145C C150U C169A U176C, the reverse-splicing fitness stood at 0.00983.

In the case of C82A A111C A145U U176A, the reverse-splicing fitness came out at 0.073. To C82A A111C A145U U176C belongs 0.0939. Consider C82A A111C A145U U176G, for which the reverse-splicing fitness is 0.0235. As to C82A A111G A120C A145C C150G C169G U176G, the reverse-splicing fitness was 0.00568. To C82A A111G A120C A145C C150G C169G U176A belongs 0.00979.

In the case of C82A A111G A120C A145C C150G C169G U176C, the reverse-splicing fitness turned out to be 0.00812. As for C82A A111G A120C A145U C150U C169A, the reverse-splicing fitness amounted to 0.0102. For C82A A111G A120C A145U C150U C169G, the reverse-splicing fitness came out at 0.00921. Next, C82A A111C A145U: 0.229; C82A A111G A120C A145G C150G C169U U176A: 0.0129; C82A A111G A120C A145G C150G C169U U176G: 0.00802. For C82A A111G A120C A145G C150G C169U U176C, the reverse-splicing fitness amounted to 0.0117.

Turning to C82A A111C C150A C169U U176G, the reverse-splicing fitness is 0.0104. C82A A111C C150A C169U U176A: the reverse-splicing fitness was 0.0161.

Regarding C82A A111C C150A C169U U176C, the reverse-splicing fitness was determined as 0.0182. For the variant C82A A111G A120C A145G C150A C169U U176C, the reverse-splicing fitness was 0.0154. To C82A A111G A120C A145G C150A C169U U176A belongs 0.0153; to C82A A111G A120C A145G C150A C169U U176G, 0.00842. For the variant C82A A111C A145U C150G C169G U176C, the reverse-splicing fitness turned out to be 0.0061. For C82A A111C A145U C150G C169G U176G, the reverse-splicing fitness turned out to be 0.00861.

With C82A A111C A145U C150G C169G U176A, the reverse-splicing fitness is 0.00679.

With C82A A111G A120C A145G C150A C169G, the reverse-splicing fitness turned out to be 0.00915.
